Results from the supplement of paper PMC9112550, “Optimization of the antimicrobial peptide Bac7 by deep mutational scanning” (BMC Biology, 2022).

Test system: Escherichia coli TOP10
Assay: shrunken log2 fold change of peptide-encoding DNA abundance (4.5 h post-induction vs induction); higher = less antimicrobial activity (less host growth inhibition)
Details: time post-induction: 4.5 h; library: site-saturation at positions 5, 18, 19, 20
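Further: peptides expressed intracellularly from a pBAD plasmid library in pooled LB shake-flask culture, induced with 0.3% L-arabinose, DNA abundance read by NGS, three biological replicates, DESeq2 with apeglm shrinkage.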

| Sequence | shrunken log2 fold change |
| --- | --- |
| RRIRPRPPRLPRPRPRPVVCPRP | 0.53 |
| RRIRHRPPRLPRPRPRPHELPRP | -0.126 |
| RRIRMRPPRLPRPRPRPNPHPRP | 0.269 |
| RRIRERPPRLPRPRPRPGQNPRP | -0.0659 |
| RRIRPRPPRLPRPRPRPQTGPRP | 0.142 |
| RRIRVRPPRLPRPRPRPVAPPRP | 0.242 |
| RRIRKRPPRLPRPRPRPTIIPRP | -0.0974 |
| RRIRDRPPRLPRPRPRPYYVPRP | 0.0365 |
| RRIRVRPPRLPRPRPRPCDWPRP | 0.192 |
| RRIRGRPPRLPRPRPRPYRYPRP | 0.322 |
| RRIRERPPRLPRPRPRPNIDPRP | -0.0761 |
| RRIRTRPPRLPRPRPRPPLKPRP | -0.0323 |
| RRIRHRPPRLPRPRPRPDLDPRP | -0.0331 |
| RRIRLRPPRLPRPRPRPDGWPRP | 0.257 |
| RRIRFRPPRLPRPRPRPMFIPRP | -0.443 |
| RRIRQRPPRLPRPRPRPVFQPRP | 0.0308 |
| RRIRSRPPRLPRPRPRPSPSPRP | 0.0408 |
| RRIRTRPPRLPRPRPRPRRVPRP | 0.329 |
| RRIRLRPPRLPRPRPRPDNLPRP | -0.186 |
| RRIRFRPPRLPRPRPRPLYYPRP | -0.885 |
| RRIRARPPRLPRPRPRPAWFPRP | 0.303 |
| RRIRFRPPRLPRPRPRPGIKPRP | -0.137 |
| RRIRGRPPRLPRPRPRPIELPRP | -0.0084 |
| RRIRDRPPRLPRPRPRPSNFPRP | -0.0206 |
| RRIRRRPPRLPRPRPRPELNPRP | 0.312 |

| Sequence | shrunken log2 fold change |
| --- | --- |
| RRIRDRPPRLPRPRPRPRMKPRP | 0.0166 |
| RRIRSRPPRLPRPRPRPYAQPRP | -0.535 |
| RRIRYRPPRLPRPRPRPKGSPRP | -0.143 |
| RRIRVRPPRLPRPRPRPPFSPRP | 0.15 |
| RRIRKRPPRLPRPRPRPKHYPRP | -0.283 |
| RRIRNRPPRLPRPRPRPKWMPRP | -0.19 |
| RRIRVRPPRLPRPRPRPGVIPRP | 0.0193 |
| RRIRLRPPRLPRPRPRPNWWPRP | 0.117 |
| RRIRMRPPRLPRPRPRPKLAPRP | 2.87 |
| RRIRHRPPRLPRPRPRPRMNPRP | -0.197 |
| RRIRLRPPRLPRPRPRPQNWPRP | 0.1 |
| RRIRMRPPRLPRPRPRPVCTPRP | 0.479 |
| RRIRHRPPRLPRPRPRPHTMPRP | -0.0685 |
| RRIRARPPRLPRPRPRPCIPPRP | 2.51 |
| RRIRHRPPRLPRPRPRPQWTPRP | -0.00992 |
| RRIRSRPPRLPRPRPRPSGDPRP | 0.118 |
| RRIRKRPPRLPRPRPRPRSAPRP | 0.884 |
| RRIRTRPPRLPRPRPRPMGYPRP | 0.0627 |
| RRIRTRPPRLPRPRPRPSFNPRP | -0.507 |
| RRIRTRPPRLPRPRPRPGSVPRP | -0.179 |
| RRIRVRPPRLPRPRPRPTTAPRP | 0.181 |
| RRIRQRPPRLPRPRPRPEGKPRP | 0.0352 |
| RRIRYRPPRLPRPRPRPGKFPRP | -0.0427 |
| RRIRERPPRLPRPRPRPSKEPRP | -0.0565 |
| RRIRRRPPRLPRPRPRPQALPRP | 0.128 |

| Sequence | shrunken log2 fold change |
| --- | --- |
| RRIRVRPPRLPRPRPRPWHAPRP | -0.109 |
| RRIRSRPPRLPRPRPRPWITPRP | -0.305 |
| RRIRHRPPRLPRPRPRPGFAPRP | 0.142 |
| RRIRRRPPRLPRPRPRPADKPRP | -0.121 |
| RRIRGRPPRLPRPRPRPQTSPRP | 0.407 |
| RRIRRRPPRLPRPRPRPAIYPRP | -0.148 |
| RRIRSRPPRLPRPRPRPQQVPRP | 0.0131 |
| RRIRDRPPRLPRPRPRPFFPPRP | 0.0715 |
| RRIRSRPPRLPRPRPRPVDHPRP | -0.00391 |
| RRIRLRPPRLPRPRPRPDKQPRP | -6.78e-05 |
| RRIRVRPPRLPRPRPRPCKLPRP | -0.453 |
| RRIRPRPPRLPRPRPRPLMPPRP | -0.188 |
| RRIRNRPPRLPRPRPRPFAKPRP | 0.637 |
| RRIRERPPRLPRPRPRPIDTPRP | -0.113 |
| RRIRQRPPRLPRPRPRPTFGPRP | 0.343 |
| RRIRFRPPRLPRPRPRPKKPPRP | -0.0169 |
| RRIRLRPPRLPRPRPRPIPTPRP | -0.105 |
| RRIRGRPPRLPRPRPRPCDLPRP | 0.0268 |
| RRIRHRPPRLPRPRPRPRNDPRP | -0.0937 |
| RRIRKRPPRLPRPRPRPAKSPRP | 0.254 |
| RRIRSRPPRLPRPRPRPSSKPRP | -0.219 |
| RRIRWRPPRLPRPRPRPPVCPRP | 0.15 |
| RRIRQRPPRLPRPRPRPLCEPRP | -0.0868 |
| RRIRPRPPRLPRPRPRPHAAPRP | 0.3 |
| RRIRERPPRLPRPRPRPHSTPRP | -0.817 |

| Sequence | shrunken log2 fold change |
| --- | --- |
| RRIRNRPPRLPRPRPRPRKAPRP | 0.473 |
| RRIRVRPPRLPRPRPRPFHLPRP | 0.0337 |
| RRIRDRPPRLPRPRPRPCWWPRP | 0.249 |
| RRIRSRPPRLPRPRPRPLETPRP | -0.122 |
| RRIRTRPPRLPRPRPRPALAPRP | 0.425 |
| RRIRWRPPRLPRPRPRPYCMPRP | -0.401 |
| RRIRFRPPRLPRPRPRPADEPRP | 0.173 |
| RRIRGRPPRLPRPRPRPFNHPRP | -0.357 |
| RRIRQRPPRLPRPRPRPSNQPRP | -0.359 |
| RRIRRRPPRLPRPRPRPVDEPRP | 0.0882 |
| RRIRSRPPRLPRPRPRPRGCPRP | 0.383 |
| RRIRSRPPRLPRPRPRPCKPPRP | -0.173 |
| RRIRHRPPRLPRPRPRPAQWPRP | 0.112 |
| RRIRPRPPRLPRPRPRPMTIPRP | -0.421 |
| RRIRLRPPRLPRPRPRPPGMPRP | 0.197 |
| RRIRERPPRLPRPRPRPLFRPRP | 1.09 |
| RRIRPRPPRLPRPRPRPCTWPRP | 0.025 |
| RRIRNRPPRLPRPRPRPMTLPRP | -0.337 |
| RRIRHRPPRLPRPRPRPFSAPRP | -0.186 |
| RRIRQRPPRLPRPRPRPRFYPRP | -0.206 |
| RRIRNRPPRLPRPRPRPLLFPRP | -0.188 |
| RRIRHRPPRLPRPRPRPGDIPRP | -0.412 |
| RRIRDRPPRLPRPRPRPMRAPRP | 0.953 |
| RRIRDRPPRLPRPRPRPVLDPRP | -0.0729 |
| RRIRGRPPRLPRPRPRPPFGPRP | 0.738 |

| Sequence | shrunken log2 fold change |
| --- | --- |
| RRIRLRPPRLPRPRPRPGSIPRP | -0.301 |
| RRIRWRPPRLPRPRPRPVKWPRP | -0.0659 |
| RRIRDRPPRLPRPRPRPVWEPRP | 0.0337 |
| RRIRARPPRLPRPRPRPNVHPRP | 0.0927 |
| RRIRYRPPRLPRPRPRPHKAPRP | -0.0167 |
| RRIRFRPPRLPRPRPRPRLQPRP | 0.221 |
| RRIRKRPPRLPRPRPRPCSVPRP | 0.0108 |
| RRIRFRPPRLPRPRPRPIVPPRP | 0.0537 |
| RRIRNRPPRLPRPRPRPCTFPRP | -0.0494 |
| RRIRRRPPRLPRPRPRPLDWPRP | 0.297 |
| RRIRGRPPRLPRPRPRPTIRPRP | 0.432 |
| RRIRCRPPRLPRPRPRPSRWPRP | 0.599 |
| RRIRMRPPRLPRPRPRPLDTPRP | -0.0606 |
| RRIRYRPPRLPRPRPRPHMEPRP | -0.249 |
| RRIRFRPPRLPRPRPRPETYPRP | -0.0354 |
| RRIRARPPRLPRPRPRPFGWPRP | 0.24 |
| RRIRTRPPRLPRPRPRPSDIPRP | -0.0989 |
| RRIRDRPPRLPRPRPRPFCRPRP | 0.0534 |
| RRIRNRPPRLPRPRPRPEVCPRP | -0.049 |
| RRIRERPPRLPRPRPRPAVYPRP | -0.221 |
| RRIRERPPRLPRPRPRPMPLPRP | 0.000847 |
| RRIRPRPPRLPRPRPRPDFTPRP | -0.411 |
| RRIRFRPPRLPRPRPRPWFLPRP | -1.15 |
| RRIRWRPPRLPRPRPRPPACPRP | 0.531 |
| RRIRKRPPRLPRPRPRPLSEPRP | 0.251 |

| Sequence | shrunken log2 fold change |
| --- | --- |
| RRIRFRPPRLPRPRPRPLKFPRP | -0.544 |
| RRIRARPPRLPRPRPRPQIGPRP | 3.24 |
| RRIRMRPPRLPRPRPRPQVMPRP | 0.0337 |
| RRIRTRPPRLPRPRPRPRGTPRP | 0.197 |
| RRIRMRPPRLPRPRPRPVHNPRP | -0.0275 |
| RRIRHRPPRLPRPRPRPQFLPRP | -0.653 |
| RRIRWRPPRLPRPRPRPNLCPRP | 0.114 |
| RRIRSRPPRLPRPRPRPKRMPRP | 0.00691 |
| RRIRSRPPRLPRPRPRPNWQPRP | 0.0694 |
| RRIRLRPPRLPRPRPRPWSHPRP | 0.00674 |
| RRIRMRPPRLPRPRPRPMGWPRP | 0.808 |
| RRIRRRPPRLPRPRPRPVDNPRP | 0.0838 |
| RRIRERPPRLPRPRPRPRQWPRP | -0.0536 |
| RRIRHRPPRLPRPRPRPECMPRP | -0.0379 |
| RRIRRRPPRLPRPRPRPAFPPRP | 0.356 |
| RRIRFRPPRLPRPRPRPLFKPRP | -0.279 |
| RRIRWRPPRLPRPRPRPIHGPRP | 0.0966 |
| RRIRRRPPRLPRPRPRPFGPPRP | 0.165 |
| RRIRTRPPRLPRPRPRPSNPPRP | -0.663 |
| RRIRERPPRLPRPRPRPAQLPRP | -0.124 |
| RRIRWRPPRLPRPRPRPGSGPRP | 0.497 |
| RRIRSRPPRLPRPRPRPPANPRP | 0.283 |
| RRIRGRPPRLPRPRPRPLLQPRP | 0.486 |
| RRIRHRPPRLPRPRPRPEWNPRP | -0.294 |
| RRIRSRPPRLPRPRPRPNQAPRP | -0.169 |
